The values below come from article PMC5862903.

Holding throughout (test): ELISA
Holding throughout (conditions): 0.5 μg coated receptor, read off a plot
On the technique in general: In an ELISA, binding on a coated surface is turned into a signal by an enzyme label.

The target of assay [1] is Manduca sexta CR12 CAD fragment corresponding to cadherin repeat 12 (CAD-CR12).
Assay [2] has as its target Manduca sexta alkaline phosphatase (ALP), recombinant.
Assay [3] addresses Manduca sexta aminopeptidase N 1 (APN1), recombinant.

With “Cry1Ab wild type toxin (from UniProt P0A370) G439D”, the response was 0.12 ABS (490) in assay [1] (toxin 6.25 nM, parent: est. 0.46); 0.2 ABS (490) in assay [1] (toxin 12.5 nM, parent: est. 0.76); 0.45 ABS (490) in assay [1] (toxin 25 nM, parent: est. 1.3); 0.76 ABS (490) in assay [1] (toxin 50 nM, parent: est. 2.0); 1.2 ABS (490) in assay [1] (toxin 100 nM, parent: est. 2.4); 0.03 ABS (490) in assay [2] (toxin 6.25 nM, parent: est. 0.23). Besides, the response in assay [2] (toxin 12.5 nM, parent: est. 0.39) is 0.05 ABS (490); in assay [2] (toxin 25 nM, parent: est. 0.75), 0.13 ABS (490); in assay [2] (toxin 50 nM, parent: est. 1.5), 0.34 ABS (490); in assay [2] (toxin 100 nM, parent: est. 2.2) it was 0.68 ABS (490); in assay [3] (toxin 6.25 nM, parent: est. 0.27), 0.09 ABS (490 nm); in assay [3] (toxin 12.5 nM, parent: est. 0.48), 0.12 ABS (490 nm). In addition, the response in assay [3] (toxin 25 nM, parent: est. 0.95) was 0.27 ABS (490 nm); in assay [3] (toxin 50 nM, parent: est. 1.6), 0.61 ABS (490 nm); in assay [3] (toxin 100 nM, parent: est. 2.1), 1.1 ABS (490 nm).
